Test results as given in the DeepSol protein solubility set.

Assay: soluble on expression in E. coli; label from the status in PepcDB or PDB records

Row | Sequence | soluble on expression in E. coli
1 | MTSPSSDEDIIDIRVIKEEPESEPDSEAEPATTTNSTDSEDSVEQENKKLLETEKNRKREQKHKMLPNGTTSGTSDTGNQVPATSSAASSVDYTAMNAQDYLPTYSNTTLNYQPYQYQTAANGLLNYNNYSQYATANQLGSNYISPANFMQGGGISPLGFTTGTTGATTAAASVATSSASAVIGRSNGRSSSTVAASPADRSYSGVSGGQGQELTIQEFETVTEKIRRHGTYGQSKPPYSYISLITMAIQKSNSRQLTLSEIYNWIMDLFPYYQNNQQRWQNSIRHSLSFNDCFVKVARSPDKPGKGSFWTLHEHCGNMFENGCYLRRQKRFKVKEREPSRKKRNANSQQLHQQQHIPKMEIKEEDPTSITTTSSLGAYSLIPQISTKKEIKEELKAVQDATAAAANLGLIDPSGTPSAVNHSQPTSVISSVGTLGTTQAQMTLNGQYASPYLYSSDFATILPQSQNFLNNTLYNTTSSYPGIDYTNGVYQNTLYSSTNPNSAANL | not soluble
2 | MASKPGERKTQILHTLAEMLEQPHAARITTSALAARMQVSEAALYRHFASKAQMFEGLIEFIETSIFTVVNQIAVSEPYGMGQARKTVAMLLAFAERNRGITRVLTGDALVTEDNRLQERINHINDRIEASLKQCLRVAVSDGALPADANIAAHASLLTHLVLGRWLRYAQSGWRVAPTTHLEEHLRLALG | not soluble
3 | MGSDKIHHHHHHMAKDIIKLGDVATYINGYAFKPEDRGEEGLQIIRIQDLTGNSYDLGFYNGKYPKKIEINDGDVLISWSASLGVYVWNGGKALLNQHIFKVKFDKVDIDKSYFVYAVRYKLNDMGKKTHGATMKHIVKRDFDATEIPYPPLKKQIEIAINLDKVLMVIKERKRELKLLDELIKARFVEMFGDCTNMISLSDLCLIITDGTHQSPKFQHEGIPFILVSNLSKNTVTYDTDKFISAETYKELYKRTPIEIGDILLSTVGSYGHPAVVVEDRKFLFQRHIAYLKPKSDILNSYYMHGALLSPGCQRQIEEKVKGIAQKTLNLSEIRKIRIPVPSLDLQKQYADFVHQVNKSKVAVQKALDETQILFDSLMQKYFG | not soluble
4 | GMSVAAEVAQVAQSAIDDFNAAYGLCLDDDRLEQWPTLFVDDCLYQVIARENVDNGLPAAVMYCDSKGMLADRVVALRKANVFPEHFNRHLIGRAVITGVEGDQVSAEASYVVFQTRNDGETRIYNAGKYVDRFDLSGGTVRLKSRTCIYDTLRIATLLATPI | soluble
5 | RIRKIIAGYQTELEASQEQEKKARQEKDELMRNMAHDLRTPLTGVMTYVDVMKLENEAYAENMKNLNFISEKVLDIRTQVDNLLDFSIAGSQRPVELDASMDVEYIFGDYLSDVCAQLMKSNYEVDAEGISFKQVKVAVNMAFLTRIFSNLTDNIYKYADNKKPVVMKTAFTKKTFSVEIGNGVCDNKTLLKSAGIGLKSVDAMMQRMNGSMSFKREHGKFWVKLEFPIV | not soluble
6 | MSLGIGHPMWVGWCIIIAMRSIPASVESSVLRWARESCGLTEVAAARKLGLPDDRVAAWEVGEVVPTIAQLRKAAEVYKRSLAVFFLSEPPEGFDTLRDFRRLDGAASGQWTPGLHEEFRRAHTQRDFALELADAEDREIPGAWRLPLSGDEADADIAARIRKALIEVSPLPIPVASVDPYEHLNAWVSAIETSGVLVLATRGGKVAIDEMRGMCLYFDELPVIVLNGSDHPRPRLFSLLHEFVHVVLHTEGLCDVIADAHPSTQDRSLEARCNAIAAAVLMPADVVRARPEVIVRSETPSSWDYESLRPVAAHFGVSAEAFLRRLSTLGIVPVEVYRQRRAEFIAAHEDEAEGHHHHHH | soluble
7 | MKKTAIAIAVALAGFATVAQAEVKLHESGAGLVKPGASVEISCKATGYTFSSFWIEWVKQRPGHGLEWIGEILPGRGRTNYNEKFKGKATFTAETSSNTAYMQLSSLTSEDSAVYYCATGNTMVNMPYWGQGTTVTVSSASTKGPSVFPLAPSSKSTSGGTAALGCLVKDYFPEPVTVSWNSGALTSGVHTFPAVLQSSGLYSLSSVVTVPSSSLGTQTYICNVNHKPSNTKVDKKVEPKSCSAWSHPQFEK | soluble
8 | MVAIIFDMDGVLYRGNRAIPGVRELIEFLKERGIPFAFLTNNSTKTPEMYREKLLKMGIDVSSSIIITSGLATRLYMSKHLDPGKIFVIGGEGLVKEMQALGWGIVTLDEARQGSWKEVKHVVVGLDPDLTYEKLKYATLAIRNGATFIGTNPDATLPGEEGIYPGAGSIIAALKVATNVEPIIIGKPNEPMYEVVREMFPGEELWMVGDRLDTDIAFAKKFGMKAIMVLTGVSSLEDIKKSEYKPDLVLPSVYELIDYLKTL | soluble
9 | MKFFILSTTLLLIGVQCGYPVAQNSYPTPPPPSDSYVVPKQSYPTAPGAYATKHSFPQNSAPVTAPPLPPPPAPSGYSSDDASVTSNVAASPPAPPTDAQIVGSSSSSTNYGGSSPTYGGSLSSGGIVGGNSLNYGTYNSASAGTPAATGAGASSGYRRRAKAKARARARARTAPNRRLHQRRHLQPIRRFRFQKKAKQ | soluble
10 | MSRVPEPSVFLVVDEAKRKARERGVGLIDLSIGSTDLPPPEAPLKALAEALNDPTTYGYCLKSCTLPFLEEAARWYEGRYGVGLDPRREALALIGSQEGLAHLLLALTEPEDLLLLPEVAYPSYFGAARVASLRTFLIPLREDGLADLKAVPEGVWREAKVLLLNYPNNPTGAVADWGYFEEALGLARKHGLWLIHDNPYVDQVYEGEAPSPLALPGAKERVVELFSLSKSYNLAGFRLGFALGSEEALARLERVKGVIDFNQYAGVLRMGVEALKTPKEVVRGYARVYRERALGMAEALKGVLSLLPPRATMYLWGRLPEGVDDLEFGLRLVERGVALAPGRGFGPGGKGFVRIALVRPLEELLEAAKRIREALD | soluble
11 | MGSDKIHHHHHHMKNMTLDSLDMLSANILVNLYEKHSASSVAMEMNIPAPKVSRCLQHARMIFNDPLFIRKKHGLEPNEFTRQLYPLVKALVQCGEQLQQLESCHDLAASQVMVLYVSDLLIAELPQRLSSAISEAQLPISYELRTGSVDLVEDLAQGLVDLAIVSESSDRALQDDRLIVSPLTELTHLYLLCSHKHPLLQQEISLGNIANYPYLSAFGQLDKQAPDPFQRYCAQQRLSCHLAPVELGREGLAFHQLYRYLSDDKTVSLLPYSRVYEHSEQLPGLHVCCLSGMDTARLYRDQPYPRLYMLSRSGRGGAHLEWMKQEIGQLIKQNVH | not soluble
12 | GMSSDVQKGDNLETPGARDLLLQTASNIMREGDVVDISLSELSLRSGLNSALVKYYFGNKAGLLKALLDRDMENIVKSVDALLAKDDMSPEAKLRRHISKCIDTYYDYPYLNRLLMRLVRDSDEAEAKRIADQYLLPLHRAYNRFIGEGVKAGVFRPINPQLFYFTVTGAADRFFSARLVLKHCFDQDTLTEQLRDSYREHTVDFIMAGILAH | soluble
13 | MSLSHIHFLIALATLVPVTAPAMQVSTQAPLVDATGQTLHIRGVTWPGFDRAGLTAVGMRNNTLAQLLDRMQASDINAVRVPVCAAVLQRAPVAAAEVAGDSTLRGLDSLQLLDAVVHAATQRGMHVMFAFADGGCDDRAPLLGAQQQAWTRGLVTLARRYGGNANVLGIDLGSSGYRNASWAGNAADQNWNRVASRAAAMVLAQAPRWVVGVEGVGSNAVCSDPGRKALGSNLQPFACVPLDIAPRHLVLMPKLAGPDRDTTDAFAAPGFAQALPAMWQRDFGQFAIDHTVVPVSLGGGLGDGDPRDPAWQTALSGYLANTGMRSAFLGSWETSNANNGGLLAPDGSPRADKLLILRHAWGMLPVMPAIATATGDSTKNASGTKGWNSTFTGTATSTGSGYSGGAVLLDPIPSDAFITALNSTQMNFGGIKAALAGAYLEVTGPKGKTTVYVTDLYPDGASGGLDLSYNAFAAIGNLADGHIPISWKVVRAPITGNVQYRIKEGSSRYWAAIQVRHHIYPVVKLEVKQGSTWTSLPKTPYNHFVGTNLGNKPLSIRITDIRGKVIADKIPALPEYGGSAAYFEPGHVQFPEGHHHHHH | soluble
14 | MNGGEKLESIPIDLIIEIHSRLPAESVARFRCVSKLWGSMFRRPYFTELFLTRSRARPRLLFVLQHNRKWSFSVFSSPQNQNIYEKPSFVVADFHMKFSVSTFPDFHSCSGLIHFSMMKGAYTVPVVCNPRTGQYAVLPKLTRTRYENSYSFVGYDPIEKQIKVLFMSDPDSGDDHRILTLGTTEKMLGRKIECSLTHNILSNEGVCINGVLYYKASRIVESSSDDDTSDDDDDDHERSDVIVCFDFRCEKFEFIVICFYGQLINSVQLSLKQKSHQKLDLII | soluble
